Results reported in article PMC8542614.
Where “and” joins values, the source holds several entries; their conditions need not be identical. Equal values may be shown once. Read-outs that look alike come from different tables or passages of the source.

Columns and labels:
[1] = biological target: HCV E2 ectodomain (eE2), full length, residues 384-656, genotype J6 (HCV genotype J6); assay: ITC
[2] = biological target: HCV E2 ectodomain (eE2), full length, residues 384-656, genotype J6 (HCV genotype J6); assay: ITC; remark: listed apart in the source

B1: human CD81 large extracellular loop (hCD81-LEL), residues 112-202 (domain or fragment)
chain: GFVNKDQIAKDVKQFYDQALQQAVVDDDANNAKAVVKTFHETLDCCGSSTLTALTTSVLKNNLCPSGSNIISNLFKEDCHQKIDDLFSGKL
[1]
  Kd: 773 nM
[2]
  Kd: 681 nM
  dH: -7.89 kcal/mol and -6.65 kcal/mol
  stoichiometry N: 0.99 and 0.86
